{
  "source": "paper PMC6203815",
  "experiment": "Ni-NTA recovery from HEK293, Coomassie SDS-PAGE",
  "conditions": "glycan lost; control: wild-type Pfs48/45 6C",
  "data": [
    {"protein": "Pfs48/45 6C: S305A (protein) parent chain: MMLYISAKKAQVAFILYIVLVLRIISGNNDFCKPSSLNSEISGFIGYKCNFSNEGVHNLKPDMRERRSIFCTIHSYFIYDKIRLIIPKKSSSPEFKILPEKCFQKVYTDYENRVETDISELGLIEYEIEENDTNPNYNERTITISPFSPKDIEFFCFCDNTEKVISSIEGRSAMVHVRVLKYPHNILFTNLTNDLFTYLPKTYNESNFVSNVLEVELNDGELFVLACELINKKCFQEGKEKALYKSNKIIYHKNLTIFKAPFYVTSKDVNTECTCKFKNNNYKIVLKPKYEKKVIHGCNFSSNVSSKHTFTDSLDISLVDDSAHISCNVHLSEPKYNHLVGLNCPGDIIPDCFFQVYQPESEELEPSNIVYLDSQINIGDIEYYEDAEGDDKIKLFGIVGSIPKTTSFTCICKKDKKSAYMTVTIDSAYYGFLAKTFIFLIVAILLYI", "values": [
      {"measurement": "expression_or_secretion", "result": "decreases"}
    ]}
  ]
}
